Source: the supplement of paper PMC9112550, “Optimization of the antimicrobial peptide Bac7 by deep mutational scanning” (BMC Biology, 2022)

What follows are sequences tested on Escherichia coli TOP10 (assay: shrunken log2 fold change of peptide-encoding DNA abundance (4.5 h post-induction vs induction); higher = less antimicrobial activity (less host growth inhibition)). Conditions: time post-induction: 4.5 h; library: site-saturation at positions 5, 18, 19, 20.
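Also: peptides expressed intracellularly from a pBAD plasmid library in pooled LB shake-flask culture, induced with 0.3% L-arabinose, DNA abundance read by NGS, three biological replicates, DESeq2 with apeglm shrinkage.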

First: RRIRMRPPRLPRPRPRPMYRPRP
Second: RRIRARPPRLPRPRPRPTSKPRP
The “shrunken log2 fold change” value of the first is lower: -0.0586 for the first, 0.236 for the second.

Compared with RRIRARPPRLPRPRPRPYVKPRP, RRIRHRPPRLPRPRPRPAAQPRP is higher in “shrunken log2 fold change” value: -0.539 for the first, -0.0888 for the second.

RRIRHRPPRLPRPRPRPNAHPRP and RRIRWRPPRLPRPRPRPVLIPRP are within 0.2 log units of each other in “shrunken log2 fold change” value: -0.0872 for the first, -0.0326 for the second.

Going from RRIRMRPPRLPRPRPRPRMPPRP to RRIRERPPRLPRPRPRPIIMPRP, the “shrunken log2 fold change” value falls from 0.771 to -0.119.

RRIRNRPPRLPRPRPRPAKTPRP and RRIRHRPPRLPRPRPRPIDPPRP are within 0.2 log units of each other in “shrunken log2 fold change” value: 0.0732 for the first, 0.0865 for the second.

RRIRRRPPRLPRPRPRPWLVPRP and RRIRWRPPRLPRPRPRPSPMPRP are within 0.2 log units of each other in “shrunken log2 fold change” value: -0.0986 for the first, -0.108 for the second.

Going from RRIRSRPPRLPRPRPRPCSWPRP to RRIRVRPPRLPRPRPRPNGNPRP, the “shrunken log2 fold change” value falls from -0.0623 to -0.323.

Compared with RRIRKRPPRLPRPRPRPMTAPRP, RRIRVRPPRLPRPRPRPSNCPRP is lower in “shrunken log2 fold change” value: 0.832 for the first, -0.225 for the second.

RRIRPRPPRLPRPRPRPLPLPRP and RRIRHRPPRLPRPRPRPDTPPRP are within 0.2 log units of each other in “shrunken log2 fold change” value: -0.128 for the first, -0.0405 for the second.

Going from RRIRARPPRLPRPRPRPEWRPRP to RRIRERPPRLPRPRPRPSCGPRP, the “shrunken log2 fold change” value falls from 0.37 to 0.0151.

RRIRQRPPRLPRPRPRPRFPPRP and RRIRVRPPRLPRPRPRPRQYPRP are within 0.2 log units of each other in “shrunken log2 fold change” value: 0.0593 for the first, 0.00898 for the second.

RRIRWRPPRLPRPRPRPLYGPRP and RRIRARPPRLPRPRPRPLYPPRP are within 0.2 log units of each other in “shrunken log2 fold change” value: -0.369 for the first, -0.221 for the second.

Going from RRIRCRPPRLPRPRPRPQVEPRP to RRIRGRPPRLPRPRPRPFIPPRP, the “shrunken log2 fold change” value falls from 0.0599 to -0.429.

RRIRFRPPRLPRPRPRPTDVPRP and RRIRPRPPRLPRPRPRPDIGPRP are within 0.2 log units of each other in “shrunken log2 fold change” value: 0.0385 for the first, -0.0448 for the second.

Going from RRIRARPPRLPRPRPRPDPSPRP to RRIRTRPPRLPRPRPRPYNDPRP, the “shrunken log2 fold change” value falls from 0.508 to -0.00735.

Going from RRIRIRPPRLPRPRPRPGDVPRP to RRIRDRPPRLPRPRPRPAAHPRP, the “shrunken log2 fold change” value rises from -0.227 to 0.66.

RRIRPRPPRLPRPRPRPYMDPRP and RRIRERPPRLPRPRPRPQEMPRP are within 0.2 log units of each other in “shrunken log2 fold change” value: -0.447 for the first, -0.391 for the second.

RRIRARPPRLPRPRPRPFYDPRP and RRIRVRPPRLPRPRPRPLPPPRP are within 0.2 log units of each other in “shrunken log2 fold change” value: 0.314 for the first, 0.418 for the second.

RRIRERPPRLPRPRPRPMVFPRP and RRIRVRPPRLPRPRPRPSEQPRP are within 0.2 log units of each other in “shrunken log2 fold change” value: 0.0276 for the first, -0.0241 for the second.

First: RRIRARPPRLPRPRPRPVEKPRP
Second: RRIRFRPPRLPRPRPRPSSCPRP
The “shrunken log2 fold change” value of the first is higher: 0.347 for the first, -0.183 for the second.

Going from RRIRGRPPRLPRPRPRPSTNPRP to RRIRMRPPRLPRPRPRPAVHPRP, the “shrunken log2 fold change” value falls from 0.271 to 0.0654.

First: RRIRYRPPRLPRPRPRPSHVPRP
Second: RRIRLRPPRLPRPRPRPWIEPRP
The “shrunken log2 fold change” value of the first is lower: -1.58 for the first, -0.00922 for the second.

RRIRQRPPRLPRPRPRPCGNPRP and RRIRQRPPRLPRPRPRPPFPPRP are within 0.2 log units of each other in “shrunken log2 fold change” value: 0.0751 for the first, 0.243 for the second.

RRIRHRPPRLPRPRPRPIEWPRP and RRIRGRPPRLPRPRPRPCPWPRP are within 0.2 log units of each other in “shrunken log2 fold change” value: -0.02 for the first, -0.149 for the second.

RRIRIRPPRLPRPRPRPNAKPRP and RRIRCRPPRLPRPRPRPNFCPRP are within 0.2 log units of each other in “shrunken log2 fold change” value: 0.0022 for the first, -0.157 for the second.

Going from RRIRNRPPRLPRPRPRPIFTPRP to RRIRGRPPRLPRPRPRPVSPPRP, the “shrunken log2 fold change” value rises from -0.424 to 0.101.

RRIRTRPPRLPRPRPRPGFPPRP and RRIRSRPPRLPRPRPRPRSMPRP are within 0.2 log units of each other in “shrunken log2 fold change” value: -0.0413 for the first, -0.0644 for the second.

First: RRIRLRPPRLPRPRPRPYRMPRP
Second: RRIRWRPPRLPRPRPRPPIKPRP
The “shrunken log2 fold change” value of the first is lower: -1.54 for the first, -0.0713 for the second.

Compared with RRIRDRPPRLPRPRPRPQKQPRP, RRIRMRPPRLPRPRPRPPRDPRP is higher in “shrunken log2 fold change” value: 0.086 for the first, 1.6 for the second.

Compared with RRIRPRPPRLPRPRPRPAQEPRP, RRIRSRPPRLPRPRPRPIFDPRP is lower in “shrunken log2 fold change” value: 0.171 for the first, -0.0516 for the second.
